Measurements taken from PMC4008586 (PLoS ONE, 2014).

Molecular target: Bim-BH3 peptide
Test: SPR; Biacore assay; who was immobilised and the conditions are not stated
Settings: both partners purified

Row | Kd [nM] | Binder
1 | ~0.06 | hMcl-1(171–327), wild type (domain or fragment, human, UniProt Q07820 171-327, looked up, also called myeloid cell leukemia-1) EDELYRQSLEIISRYLREQATGAKDTKPMGRSGATSRKALETLRRVGDGVQRNHETAFQGMLRKLDIKNEDDVKSLSRVMIHVFSDGVTNWGRIVTLISFGAFVAKHLKTINQESCIEPLAESITDVLVRTKRDWLVKQRGWDGFVEFFHVEDLEGG
2 | ~0.06 | hMcl-1(171–327) Cys 286 → Ser (domain or fragment, human, UniProt Q07820 171-327, looked up, seven nonnative residues LHHHHHH at the C-terminus; The NMR samples were uniformly 13C,15N-labeled (or U-15N, 5% 13C); also called mutant; mutant Cys 286 → Ser) EDELYRQSLEIISRYLREQATGAKDTKPMGRSGATSRKALETLRRVGDGVQRNHETAFQGMLRKLDIKNEDDVKSLSRVMIHVFSDGVTNWGRIVTLISFGAFVAKHLKTINQESSIEPLAESITDVLVRTKRDWLVKQRGWDGFVEFFHVEDLEGG
